The text below walks through data of paper PMC6114919.

Data set [1] has as its target Exonuclease-deficient (Exo-) p140 catalytic subunit of DNA polymerase gamma (POLG) (human) (UniProt P54098). Description: DNA polymerase activity titration (formation of active holoenzyme); holoenzymes preassembled on ice in EDB (50 mM Tris-HCl pH 7.5, 10% glycerol, 1 mM EDTA, 1 mM 2-ME, 100 mM KCl, 0.005% NP-40) with constant 2.5 nM p140 and 0-25 nM p55; activity on poly(rA)•oligo(dT)12-18 at 220 mM NaCl, 37°C, 9 min; apparent Kd from activity against the concentration of p55 dimer.

The next data set has as its target p55 (Homo sapiens) (UniProt Q9UHN1). Particulars: cited from earlier work.
Another data set concerns R182W p55 (human). Kind of data set: EMSA. The following applies: EMSA in triplicate as previously described (ref 22); buffer, salt, pH and temperature not given in the material.
The test system of data set [2] is WT p55 (Pol gamma accessory subunit) (human). Kind of data set: EMSA. The following applies: EMSA in triplicate as previously described (ref 22); buffer, salt, pH and temperature not given in the material. (In general: In EMSA bound probe runs differently from free probe, usually more slowly.)

Sequence of p55 (Q9UHN1 2-485): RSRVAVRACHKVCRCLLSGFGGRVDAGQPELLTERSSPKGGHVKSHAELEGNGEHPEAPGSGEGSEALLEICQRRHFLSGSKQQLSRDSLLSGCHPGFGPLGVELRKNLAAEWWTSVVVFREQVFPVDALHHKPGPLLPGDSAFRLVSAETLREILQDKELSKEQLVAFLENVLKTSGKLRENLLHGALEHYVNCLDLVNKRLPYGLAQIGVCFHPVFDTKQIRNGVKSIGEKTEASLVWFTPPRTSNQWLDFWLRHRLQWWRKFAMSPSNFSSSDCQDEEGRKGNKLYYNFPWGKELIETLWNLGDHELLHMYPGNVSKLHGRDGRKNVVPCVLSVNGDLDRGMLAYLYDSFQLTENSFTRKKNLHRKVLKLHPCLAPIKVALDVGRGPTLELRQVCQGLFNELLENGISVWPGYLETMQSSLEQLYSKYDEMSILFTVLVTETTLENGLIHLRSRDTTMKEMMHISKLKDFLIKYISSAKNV

For the substance “Wild-type p55 accessory subunit of DNA polymerase gamma (POLG2) (natural protein)”, the Kd in data set [1] is 350 pM. In the case of “R182W p55 accessory subunit of DNA polymerase gamma (POLG2 Chr17: 62492543G>A) (natural protein)”, the Kd in data set [1] came to 110 pM. With p55 (from UniProt Q9UHN1), the Kd with p55 (Homo sapiens) was less than 100 pM. With “47-nucleotide double-stranded DNA oligomer”, the Kd worked out at 84200 pM with R182W p55 (human) and 89600 pM in data set [2].
